Here are results for 16 molecules from patent US20240218057A1 (ROCKEFELLER UNIVERSITY, published 2024).

The test addresses T1, SARS-COV-2 RBD (SARS-COV-2, UniProt P0DTC2 319-539).
T1 construct: also called WT RBD
Kind of test: ELISA, RBD coated on plate. A general note: An ELISA detects its analyte on a solid surface through an enzyme-linked reagent.

As usually defined, the EC50 is the concentration that produces a half-maximal response. Lower therefore signals a more potent agent.

B1: C904 (antibody, V domains shown)
VH: QVQLQQWGAGLLKPSETLSLTCAVNGGSLSLYYWSWIRQSPGKGLEWIGEINHFGGSDYKPSLKSRVSISVDTSTNQFSLKLSSVTAADTAVYYCARKPLLHSNISPGAFDIWGQGTMVTVSS
VL: EIVLTQSPGTLSLSPGERATLSCRASQSVAGSYLAWYQQKPGQAPRLLIYGASSRATGVPDRISGSGSGTDFTLTISRLEPEDFAVYYCQQYTNTPRTFGGGTKVEI
On to B1, for which the EC50 came out at 3.31 ng/mL.

B2: C1060 (antibody, V domains shown)
VH: EVQLVESGGDLVQPGGSLRLSCAASEIIVSRNYMNWVRQAPGKGLEWVSIIYSGGSTFYGDSVKGRFTISRDSSKNTLYLQMHGLRVEDTAIYYCARSYGDYYIDYWGQGTLVTVSS
VL: DIQMTQSPSSVSASVGDRVTITCRTSQSISTSLAWYQQKPGKAPKLLIYAASSLQRGVPSRFSGTGSGTDFTLTISSLQPEDFATYYCQQSSSSPPLFTFGPGTKVDIK
For the molecule B2, the EC50 turned out to be 2.67 ng/mL.

B3: C1065 (antibody, V domains shown)
VH: EVQLVESGGGLIQPGGSLRLSCAASGFTVSRNYMSWVRQAPGKGLEWVSVIYSGGSTFYADSVKGRFTISRDNSKNTLYLQMNSLRAEDTAVYYCARGLPTGEGWNYFDYWGQGTLVTVSS
VL: QSALTQPASVSGSPGQSITISCTGTSSDIGGYHYVSWYQQHPGKAPKLMIYDVSNRPSGISNRFSGSKSGNTASLTISGLQAEDEADYYCSSYASSSVIFGGGTKLTVL
In turn, B3 showed an EC50 of 3.52 ng/mL.

B4: C911 (antibody, V domains shown)
VH: QVQLVESGGGVVQPGGSLRLSCAASAFTFSSYAMHWIRQSPGKGLEWVAVISSDGSSKFYADSVKGRFTISRDNSKNTLYLQMNSLSAEDTAVYYCARDLENVLIEVALQDWGQGTLVTVSS
VL: DIQMTQSPSSLSASVGDRVTITCRASQSINSYLNWYQQKPGKAPKLLIYAASSLHSGVPSRFSGSGSGTDFTLTISSLQPEDFATYYCQQSYTTLALTFGGGTKVEIK
On to B4, for which the EC50 was determined as 2.36 ng/mL.

B5: C1057 (antibody, V domains shown)
VH: QVQLVQSGAEVKKPGSSVKVSCKASGGTFTTYIISWVRQAPGQGLEWMGGISPMLGTANYAQKFQGGVTITADESTTTAYMEMSGLRSEDTAVYYCARAHMYCSDGSCYRQSGYFDSWGQGTLVTVSS
VL: QSALTQPRSVSGSPGQSVTITCTGTSSNVGGYKYVSWFQQHPGKAPKFLIYDVSERSSGVPDRFSGSKSGNTASLTISGLQAEDEADYYCCSYAGKYTVVFGGGTRLTV
For B5, it took 2.17 ng/mL to reach a half-maximal effect (EC50).

B6: C1063 (antibody, V domains shown)
VH: EVQLVQSGAEVKKPGESLKISCKGYGNSFNNYWIAWVRQMPVKGLEWMGVINPGDSDTRYSPSFQGQVTISVDKSISTAYLQWSSLKASDTAMYYCARTWSPAAVAFFDSWGQGTLVTVS
VL: NFMLTQPHSVSESPGKTVTISCTRSSDSIGSNYVQWYQQRPGSSPTIVIYEDSQRPSGVPHRFSGSFDSSSNSASLTISGLKTEDEADYYCQSWDSGNLVFGGGTKLTVL
As to B6, the EC50 came out at 3.04 ng/mL.

B7: C1068 (antibody, V domains shown)
VH: QVQLVESGGGVVQPGRSLRLSCAASGFTFSTFAMHWVRQAPGKGLEWVAVTSYDGSNKYYADSVKGRFTISRDNSKNTLYLQMNSLRAEDTAVYYCARGLLWFGESEYFQHWGQGTLVTVSS
VL: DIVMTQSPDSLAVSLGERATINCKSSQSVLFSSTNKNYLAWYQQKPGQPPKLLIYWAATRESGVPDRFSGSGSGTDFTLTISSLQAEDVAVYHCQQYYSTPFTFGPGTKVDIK
As to B7, a half-maximal response (EC50) required 2.48 ng/mL.

B8: C1066 (antibody, V domains shown)
VH: EVQLVESGGGLVQPGRSLRLSCAASGFMFDDYAMHWVRQAPGKGLEWVSGINWSSADIGYVDSVKGRFTISRDNAKNSLYLQMNSLRTEDTAFYYCAKGWFGELLGGSDSWGQGTLVTVSS
VL: QLVLTQSSSASASLGSSVKLTCTLNSGHSSYIIAWHQQQPGKAPRYLMKLEGSGSYNKGSGVPDRFSGSSSGADRYLTISNLQFEDEADYYCATWDSNTQVFGGGTKLTVL
On to B8, for which the concentration for a half-maximal effect (EC50) stood at 3.01 ng/mL.

B9: C909 (antibody, V domains shown)
VH: QVQLVQSGAEVKKPGASVKVSCRASGYTFPNYDLNWVRQATGQGLEWMGWMNPNSGNTGYAQKFQGRITMTRITSISTAYMELSSLRSEDTAVYYCARGRANWNSNFLLDSWGQGTLVTVSS
VL: QSALTQPASVSGSPGQSITISCTGTSSDVGGYNLVSWYQQYPGNVPKLMIYEDAKRPSGVSNRFSGSKSANTASLTISGLQAEDEADYYCCSYAGSSTRYVFGTGTKVTVL
With B9, the EC50 came out at 3.24 ng/mL.

B10: C905 (antibody, V domains shown)
VH: QVQLQESGPGLVTPSQTLSLTCSVSGGSIHSRDFYWGWIRQHPGKGLEWIGHIYYTGNTYYNPSLKSRVTISADTSKNQFSLKLSSVTAADTAVYYCARATVVITLHWFDPWGQGTLVTVSS
VL: NFMLTQPHSVSESPGKTVTISCTGSGGSIASNYVQWYQQRPGSAPTTVIYEDNERPSGVPDRFSGSIDSSSNSASLTISGVKTEDEADYFCQSYDVGNPVIFGGGTKLTVL
On to B10, for which the EC50 is 3.06 ng/mL.

B11: C906 (antibody, V domains shown)
VH: EVQLVESGGGLIKPGRSLRLSCTASGFTFGDYAMTWFRQAPGKGLEWVGFIRSKAYGGTTGYAASVKYRFTISRDDSKSIVYLQMDSLKTEDTAVYYCTRWDGWSQHDYWGQGTLVTVSS
VL: DIVMTQSPLSLSVTPGEPASISCRSSQSLLHSNGINYFDWYLQKPGQSPQLLIYLGSNRASGVPDRFSGSGSGTDFTLKISRVEAEDVGVYYCMQVLQIPYTFGQGTKLEI
As to B11, the EC50 amounted to 1.07 ng/mL.

B12: C907 (antibody, V domains shown)
VH: QVQLQESGPGLVKPSETLSLTCTVSGGSITSYYWTWIRQSPGKGLEWIGYIYYIGSTNYNPSLKSRLTISLATSKNQFSLRLNSVTAADTAVYYCASYYNDTSGYSYGLDVWGQGTTVTVSS
VL: DIQMTQSPSSLSAFVGDRVTITCRAGQSISSYLHWYQQKPGKAPKLLIYATSTLQSGVPSRFSGRGSGTDFTLTISGLQPEDFATYYCQQSYSTPQTFGQGTKVEIK
The molecule B12 displayed an EC50 of 3.71 ng/mL.

B13: C910 (antibody, V domains shown)
VH: QVQLVQSGAAVKKPGASVKVSCKASGYTFTSYDINWVRQAPGQGLEWMGWMNPNSGNTGFAQRFQGRATLSRDTSITTAYMELTTLRSEDTAVYYCARGRANYNSKFLLDNWGQGTLVTVSS
VL: QSALTQPASVSGSPGQSITISCTGTSSDVGSYNLVSWYQQHPGTAPKLMIYEGSKRPSGVSDRFSGYKSGNTASLTISGLQADDEADYYCCSFAGSTTRYVFGTGTRVTVL
In turn, B13 had an EC50 of 2.47 ng/mL.

B14: C908 (antibody, V domains shown)
VH: EVQLVQSGAEVKKPGESLKISCKASGYSFTIYWIGWVRQMPGKGLEWMGIIYPGESETRYSPSFQGQVTISADKSISTAYLQWRSLKASDTAMYYCARGGPPGGVKLELTDYWGQGTLVTVSS
VL: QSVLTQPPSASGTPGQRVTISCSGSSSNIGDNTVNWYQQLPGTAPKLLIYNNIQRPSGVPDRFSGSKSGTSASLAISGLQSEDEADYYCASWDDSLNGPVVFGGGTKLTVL
In turn, B14 displayed an EC50 of 1.27 ng/mL.

B15: C1067 (antibody, V domains shown)
VH: QVQLVQSGAEVKKPGASVKVSCKASRDTFTTHYIHWVRQAPGQGLEWMGIINPSGGSISYAQKFQGRVTMTRDTSTSTVYMELSSLRSEDTAVYYCARGGIVPHLSNWFDPWGQGTLVTVSS
VL: EIVLTQSPGTLSLSPGERATLSCRASQSVSSSYLAWYQQKPGQAPRLLIYGASSRATGIPDRFTGSGSGTDFTLTISRLEPEDFAVYYCQQYGRSSGFTFGPGTKVDIK
The molecule B15 had an EC50 of 2.93 ng/mL.

B16: C903 (antibody, V domains shown)
VH: EVQLVESGGGLIQPGGSLRLSCAASGFIVSRNYMSWVRQAPGKGLEWVSIIYSGGSTFYADSVKGRFTISRDNSKNTVYLQMNSLRAEDTAVYYCARDYGDFYFDYWGQGTLVTVSS
VL: EIVLTQSPGTLSLSPGERATLSCRASQSVSSSYLAWYQQKPGQAPRLLIFDVSSRATGIPDRFSGSGSGTDFTLTISRLEPEDFAVYYCQQYGSSPRTFGQGTKVEIK
Molecule B16 displayed an EC50 of 2.54 ng/mL.
